Results reported in paper PMC11187563, “The importance of tyrosines in multimers of cyclic RGD nonapeptides: towards αvβ6-integrin targeted radiotherapeutics” (RSC Medicinal Chemistry, 2024).
Like-named read-outs stand apart in the source and are kept apart here.

Assays:
[1] = Ex vivo biodistribution of 177Lu-labeled peptide tetramers in H2009 xenografted SCID mice; conditions: CB17 SCID, mouse, iv, total radioactivity, H2009 bearing SCID mice; for tissue uptake at 1.5 h / tissue to tissue ratio at 1.5 h: 43 pmol, 90 min p.i.; for tissue uptake at 72 h / tissue to tissue ratio at 72 h: 64 pmol, 3 d p.i.
Method in brief: (§1)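 SCID mice carried subcutaneous H2009 xenografts on the right shoulder. 177Lu-labeled conjugates were injected i.v., and ex vivo organ distribution was measured at two time points post-injection.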

[2] = system: αvβ6-integrin expressing human lung adenocarcinoma cell line H2009 xenografts; experiment: as above; conditions: H2009 bearing SCID mice
Method in brief: as §1

[3] = H2009 tumor, read-out: Tumor H2009 %IA/g
[4] = adrenals, read-out: Adrenals %IA/g
[5] = heart (myocard), read-out: Heart (myocard) %IA/g
[6] = kidneys, read-out: Kidneys %IA/g
[7] = large intestine (empty), read-out: Large intestine (empty) %IA/g
[8] = pancreas, read-out: Pancreas %IA/g
[9] = small intestine (empty), read-out: Small intestine (empty) %IA/g
[10] = stomach (empty), read-out: Stomach (empty) %IA/g
[11] = tumor/blood, read-out: tumor/organ ratio, Blood
[12] = tumor/heart (myocard), read-out: tumor/organ ratio, Heart (myocard)
[13] = tumor/liver, read-out: tumor/organ ratio, Liver
[14] = tumor/lung, read-out: tumor/organ ratio, Lung
[15] = tumor/pancreas, read-out: tumor/organ ratio, Pancreas
[16] = tumor/spleen, read-out: tumor/organ ratio, Spleen

Work on `CC(C)C[C@@H]1NC(=O)[C@H](CC(=O)O)NC(=O)CNC(=O)[C@H](CCCNC(=N)N)NC(=O)[C@H](Cc2ccccc2)NC(=O)[C@H](CCCCNC(=O)CCc2cn(CCCNC(=O)CCP(=O)(O)CN3CCN(CP(=O)(O)CCC(=O)NCCCn4cc(CCC(=O)NCCCC[C@H]5C(=O)N[C@@H](Cc6ccccc6)C(=O)N[C@@H](CCCNC(=N)N)C(=O)NCC(=O)N[C@@H](CC(=O)O)C(=O)N[C@@H](CC(C)C)C(=O)N[C@@H](C)C(=O)N[C@@H](Cc6ccc(O)cc6)C(=O)N6CCC[C@@H]6C(=O)N5C)nn4)CCN(CP(=O)(O)CCC(=O)NCCCn4cc(CCC(=O)NCCCC[C@H]5C(=O)N[C@@H](Cc6ccccc6)C(=O)N[C@@H](CCCNC(=N)N)C(=O)NCC(=O)N[C@@H](CC(=O)O)C(=O)N[C@@H](CC(C)C)C(=O)N[C@@H](C)C(=O)N[C@@H](Cc6ccc(O)cc6)C(=O)N6CCC[C@@H]6C(=O)N5C)nn4)CCN(CP(=O)(O)CCC(=O)NCCCn4cc(CCC(=O)NCCCC[C@H]5C(=O)N[C@@H](Cc6ccccc6)C(=O)N[C@@H](CCCNC(=N)N)C(=O)NCC(=O)N[C@@H](CC(=O)O)C(=O)N[C@@H](CC(C)C)C(=O)N[C@@H](C)C(=O)N[C@@H](Cc6ccc(O)cc6)C(=O)N6CCC[C@@H]6C(=O)N5C)nn4)CC3)nn2)N(C)C(=O)[C@H]2CCCN2C(=O)[C@H](Cc2ccc(O)cc2)NC(=O)[C@H](C)NC1=O` [Compound 177Lu-Y4, metal not drawn] yielded a tissue uptake at 1.5 h [1, 3] of 6.91 %ID/g, a tissue uptake at 72 h [1, 3] of 2.07 %ID/g and a tissue uptake at 1.5 h [1, 4] of 0.52 %ID/g. For the same molecule, the tissue uptake at 72 h [1, 4] was 0.9 %ID/g, the tissue uptake at 1.5 h ([1]; blood, read-out: Blood %IA/g) was 1.33 %ID/g and the tissue uptake at 72 h ([1]; blood, read-out: Blood %IA/g) was 0.02 %ID/g. The tissue uptake at 1.5 h ([1]; bone, read-out: Bone %IA/g) was 1.84 %ID/g, the tissue uptake at 72 h ([1]; bone, read-out: Bone %IA/g) was 0.55 %ID/g and the tissue uptake at 1.5 h [1, 5] was 0.74 %ID/g. For the same molecule, the tissue uptake at 72 h [1, 5] was 0.27 %ID/g, the tissue uptake at 1.5 h [1, 6] was 219 %ID/g and the tissue uptake at 72 h [1, 6] was 203 %ID/g. The tissue uptake at 1.5 h [1, 7] was 6.99 %ID/g, the tissue uptake at 72 h [1, 7] was 1.33 %ID/g and the tissue uptake at 1.5 h ([1]; liver, read-out: Liver %IA/g) was 1.06 %ID/g. For the same molecule, the tissue uptake at 72 h ([1]; liver, read-out: Liver %IA/g) was 0.88 %ID/g, the tissue uptake at 1.5 h ([1]; lung, read-out: Lung %IA/g) was 6.74 %ID/g and the tissue uptake at 72 h ([1]; lung, read-out: Lung %IA/g) was 1.21 %ID/g. The tissue uptake at 1.5 h ([1]; muscle, read-out: Muscle %IA/g) was 1 %ID/g, the tissue uptake at 72 h ([1]; muscle, read-out: Muscle %IA/g) was 0.28 %ID/g and the tissue uptake at 1.5 h [1, 8] was 0.37 %ID/g. For the same molecule, the tissue uptake at 72 h [1, 8] was 0.19 %ID/g, the tissue uptake at 1.5 h [1, 9] was 3.05 %ID/g and the tissue uptake at 72 h [1, 9] was 0.26 %ID/g. It also gave a tissue uptake at 1.5 h ([1]; spleen, read-out: Spleen %IA/g) of 4.71 %ID/g, a tissue uptake at 72 h ([1]; spleen, read-out: Spleen %IA/g) of 1.31 %ID/g and a tissue uptake at 1.5 h [1, 10] of 10.7 %ID/g. For the same molecule, the tissue uptake at 72 h [1, 10] was 3.88 %ID/g, the tissue to tissue ratio at 72 h ([1]; tumor / adrenals, read-out: tumor/organ ratio, Adrenals) was 4.1 and the tissue to tissue ratio at 72 h ([1]; tumor / bone, read-out: tumor/organ ratio, Bone) was 3.8. It also gave a tissue to tissue ratio at 72 h ([1]; tumor / large intestine (empty), read-out: tumor/organ ratio, Large intestine (empty)) of 1.6, a tissue to tissue ratio at 72 h ([1]; tumor / muscle, read-out: tumor/organ ratio, Muscle) of 9.1 and a tissue to tissue ratio at 72 h ([1]; tumor / small intestine (empty), read-out: tumor/organ ratio, Small intestine (empty)) of 8.2. The tissue to tissue ratio at 72 h ([1]; tumor / stomach (empty), read-out: tumor/organ ratio, Stomach (empty)) was 0.6, the tissue to tissue ratio at 1.5 h ([1]; tumor/adrenals, read-out: tumor/organ ratio, Adrenals) was 13.9 and the tissue to tissue ratio at 1.5 h [1, 11] was 5.2. For the same molecule, the tissue to tissue ratio at 72 h [1, 11] was 108, the tissue to tissue ratio at 1.5 h ([1]; tumor/bone, read-out: tumor/organ ratio, Bone) was 3.8 and the tissue to tissue ratio at 1.5 h [1, 12] was 9.6. The tissue to tissue ratio at 72 h [1, 12] was 8.2, the tissue to tissue ratio at 1.5 h ([1]; tumor/large intestine (empty), read-out: tumor/organ ratio, Large intestine (empty)) was 1 and the tissue to tissue ratio at 1.5 h [1, 13] was 6.6. For the same molecule, the tissue to tissue ratio at 72 h [1, 13] was 2.6, the tissue to tissue ratio at 1.5 h [1, 14] was 1 and the tissue to tissue ratio at 72 h [1, 14] was 1.7. For the same molecule, the tissue to tissue ratio at 1.5 h ([1]; tumor/muscle, read-out: tumor/organ ratio, Muscle) was 8.2, the tissue to tissue ratio at 1.5 h [1, 15] was 18.6 and the tissue to tissue ratio at 72 h [1, 15] was 11.3. For the same molecule, the tissue to tissue ratio at 1.5 h ([1]; tumor/small intestine (empty), read-out: tumor/organ ratio, Small intestine (empty)) was 2.6, the tissue to tissue ratio at 1.5 h [1, 16] was 1.5 and the tissue to tissue ratio at 72 h [1, 16] was 1.7. The tissue to tissue ratio at 1.5 h ([1]; tumor/stomach (empty), read-out: tumor/organ ratio, Stomach (empty)) was 0.7, the “tumor/organ ratio, Kidneys” value ([2]; 90 min p.i.) was 0.0 and the “tumor/organ ratio, Kidneys” value ([2]; 3 d p.i.) was 0.0.
